Measured values as given in patent US20210155687A1 (published 2021).

Tests used:
Human OSM [1] = target: T1, Human OSM (human); experiment: in vivo affinity estimated from FTIH PK/PD data (rounded restatement of the TMDD estimate)
T1 chain: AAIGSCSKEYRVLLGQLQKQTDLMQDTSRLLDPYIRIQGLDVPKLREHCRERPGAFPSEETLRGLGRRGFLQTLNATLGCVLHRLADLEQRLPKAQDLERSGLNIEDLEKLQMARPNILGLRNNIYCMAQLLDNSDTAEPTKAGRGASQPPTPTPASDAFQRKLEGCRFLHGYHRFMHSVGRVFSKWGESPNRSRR

Human OSM [2] = target: T1, Human OSM; experiment: in vivo affinity in serum, estimated with a TMDD model (one-compartment PK plus binding kinetics) from free and total OSM levels in the single ascending dose FTIH study

Kd (Human OSM [1]): ~0.6 nM | Kd (Human OSM [2]): 0.568 nM
B1: mab 1 (antibody)
heavy: SYAMS
light: EVQLVESGGGLVQPGGSLRLSCAASGFTFSSYAMSWVRQAPGKGLEWVATISDGGSFTYYLDNVRGRFTISRDNAKNSLYLQMNSLRAEDTAVYYCARDVGHTTFWYFDVWGRGTLVTVSS
notes: Humanised anti-OSM antibody derived from murine 10G8; also called humanised mab 1 derived from 10G8; Mature H0 (IGHV3_23 CDRH1) heavy chain with Mature L1 light chain
